Reference: the supplement of paper PMC11811203

B1: THAP1; numbered along this chain (parent)
chain: MVQSCSAYGCKNRYDKDKPVSFHKFPLTRPSLCKEWEAAVRRKNFKPTKYSSICSEHFTPDCFKRECNNKLLKENAVPTIFLCTEPHDKKEDLLEPQEQLPPPPLPPPVSQVDAAIGLLMPPLQTPVNLSVFCDHNYTVEDTMHQRKRIHQLEQQVEKLRKKLKTAQQRCRRQERQLEKLKEVVHFQKEKDDVSERGYVILPNDYFEIVEVPA

Variants of: B1
Test: THAP1 transcriptional activity (GFP+/GFP- enrichment relative to wild-type constructs) (ratio to WT); higher = more THAP1 activity (PSMB5 reporter activation)
Details: with PSMB5 promoter-GFP reporter
Procedure, shortened: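 A site-saturation library of human THAP1 (residues 2–213, each changed to all 20 amino acids) was transduced by lentivirus at MOI ~0.3, in duplicate, into THAP1-knockout HEK-293T cells carrying mClover3 knocked in at endogenous PSMB5. After five days, BFP+ cells were sorted into GFP-dim and GFP-bright bins, and variants were counted by Illumina sequencing of genomic DNA amplicons. Activity is the replicate-mean bright/dim read fold change divided by the mean of wild-type synonymous constructs.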

Row | Variant | THAP1 transcriptional activity
1 | S110G | 1.15
2 | S110Y | 0.394
3 | S110P | 0.916
4 | S110L | 0.361
5 | S110F | 0.715
6 | S110T | 0.793
7 | S110Q | 0.788
8 | S110H | 0.672
9 | S110R | 0.973
10 | S110E | 0.424
11 | S110W | 0.41
12 | S110K | 1.31
13 | S110I | 0.783
14 | S110D | 0.782
15 | S110C | 0.567
16 | S110V | 0.459
17 | S110M | 0.337
18 | V112Q | 1.03
19 | V112C | 1.08
20 | V112D | 0.804
21 | V112L | 0.629
22 | V112G | 1.11
23 | V112S | 1.12
24 | V112E | 1.25

Row | Variant | THAP1 transcriptional activity
25 | V112N | 1.3
26 | V112I | 0.587
27 | V112M | 1.24
28 | V112H | 0.743
29 | V112P | 1.04
30 | V112W | 0.234
31 | V112R | 0.921
32 | V112A | 0.615
33 | V112F | 0.388
34 | V112K | 1.74
35 | V112T | 1.06
36 | I116C | 0.903
37 | I116G | 1.82
38 | I116W | 0.472
39 | I116Q | 0.902
40 | I116T | 1.04
41 | I116H | 0.735
42 | I116D | 1.33
43 | I116Y | 0.918
44 | I116F | 0.452
45 | I116N | 0.988
46 | I116M | 0.731
47 | I116R | 0.984
48 | I116E | 0.841

Row | Variant | THAP1 transcriptional activity
49 | I116S | 1.3
50 | I116V | 1.05
51 | I116P | 0.93
52 | I116K | 0.886
53 | I116L | 0.739
54 | I116A | 1
55 | A115M | 0.233
56 | A115L | 0.295
57 | A115D | 1.12
58 | A115W | 0.164
59 | A115N | 0.982
60 | A115Q | 0.738
61 | A115H | 0.76
62 | A115V | 0.454
63 | A115F | 0.278
64 | A115K | 0.658
65 | A115P | 0.658
66 | A115S | 0.742
67 | A115T | 0.594
68 | A115Y | 0.256
69 | A115C | 0.428
70 | A115R | 0.409
71 | A115G | 0.474
72 | A115I | 0.237

Row | Variant | THAP1 transcriptional activity
73 | A115E | 1.47
74 | P122D | 0.515
75 | P122T | 0.614
76 | P122A | 0.914
77 | P122G | 0.667
78 | P122W | 0.159
79 | P122I | 0.39
80 | P122H | 0.355
81 | P122L | 0.692
82 | P122R | 0.328
83 | P122E | 0.885
84 | P122Q | 0.769
85 | P122F | 0.156
86 | P122K | 0.728
87 | P122S | 0.627
88 | P122Y | 0.254
89 | P122V | 0.214
90 | P122M | 0.226
91 | P122C | 0.319
92 | M120S | 0.984
93 | M120T | 1.85
94 | M120E | 1.25
95 | M120F | 0.651
96 | M120A | 0.822

Row | Variant | THAP1 transcriptional activity
97 | M120K | 1.37
98 | M120V | 1.24
99 | M120Q | 1.57
100 | M120W | 0.324
101 | M120D | 1.08
102 | M120R | 0.835
103 | M120N | 1.38
104 | M120H | 0.611
105 | M120G | 0.81
106 | M120C | 0.909
107 | M120P | 1.25
108 | M120L | 0.534
109 | M120I | 1.14
110 | M120Y | 0.474
111 | V127R | 1.19
112 | V127T | 0.875
113 | V127F | 0.642
114 | V127M | 0.396
115 | V127Q | 1.02
116 | V127L | 0.775
117 | V127P | 0.879
118 | V127D | 0.851
119 | V127E | 0.897
120 | V127S | 1.39

Row | Variant | THAP1 transcriptional activity
121 | V127C | 0.636
122 | V127A | 0.82
123 | V127K | 1.64
124 | V127W | 0.336
125 | V127I | 0.501
126 | V127Y | 0.411
127 | V127N | 0.997
128 | V127H | 0.843
129 | V127G | 0.609
130 | P121A | 1.18
131 | P121R | 0.501
132 | P121S | 0.441
133 | P121N | 0.457
134 | P121G | 0.454
135 | P121C | 0.259
136 | P121I | 0.299
137 | P121W | 0.0793
138 | P121E | 0.735
139 | P121M | 0.288
140 | P121Q | 0.491
141 | P121K | 0.594
142 | P121L | 0.104
143 | P121D | 0.48
144 | P121Y | 0.185

Row | Variant | THAP1 transcriptional activity
145 | P121F | 0.115
146 | P121V | 0.207
147 | Q111I | 0.508
148 | Q111Y | 0.232
149 | Q111K | 1.01
150 | Q111D | 1.06
151 | Q111A | 0.608
152 | Q111C | 0.52
153 | Q111W | 0.132
154 | Q111R | 0.543
155 | Q111T | 1.13
156 | Q111H | 0.97
157 | Q111F | 0.585
158 | Q111G | 0.565
159 | Q111L | 0.357
160 | Q111P | 0.993
161 | Q111E | 0.762
162 | Q111M | 0.329
163 | Q111V | 0.457
164 | Q111N | 0.81
165 | D113H | 0.473
166 | D113K | 0.918
167 | D113A | 0.667
